According to patent US20220396788, “RECOMBINANT TRANSPOSON ENDS” (THERMO FISHER SCIENTIFIC BALTICS, UAB, published 2022):

What was measured:
MuA transposase [1] = molecular target: T1, MuA transposase (UniProt P07636 P07636:1-663); test: EMSA; transposome assembly pH 6.0, 10% DMSO, 30 C 1 h; also fragments lambda DNA (FIG. 5A); conditions: chain copies: 4 (inferred); 5' overhang on non-transferred strand
Method: (§1) Analysis was carried out on 2% agarose gel containing 0.5 μg/mL Ethidium bromide and 87 μg/mL BSA and heparin. 5 μL of each loaded sample contains 2 μL of each transposome complex, 1 μL 6× TriTrack DNA Loading Dye (Thermo Scientific, Cat. No. R1161) and 2 μL of water. GeneRuler Low Range DNA Ladder (Thermo Scientific, Cat. No. SM1193) was used.
MuA transposomes were formed in 30 mM Tris-HCl, pH 6.0, 10% (v/v) glycerol, 0.005% (w/v) Triton X-100, 30 mM NaCl, 0.02 mM EDTA, and 10% DMSO. The complex assembly reaction contained equimolar ratio of transposon end (11.2 μM) and MuA transposase (1.65 mg/mL). Components were well mixed and incubated for one hour at 30° C. After incubation, the complex assembly mix was diluted with dilution buffer (88.0% glycerol, 314.5 mM NaCl, and 2.83 mM EDTA) to the final MuA concentration of 0.919 mg/mL. Complexed MuA transposome was stored at −70° C. for at least 16 hours before use.
Complex assembly efficiency was evaluated using an electrophoretic mobility shift assay (EMSA) on a 2% agarose gel containing 0.5 μg/mL ethidium bromide and 87 μg/mL BSA and heparin. Activity was evaluated by fragmenting 100 ng Escherichia virus lambda genomic DNA with 1.5 μL MuA complex in 30 μL of 1× Fragmentation Reaction Buffer (Thermo Scientific™ MuSeek™ Library Preparation Kit, Illumina™ compatible, Cat. No. K1361). […]

MuA transposase [2] = molecular target: T1, MuA transposase; test: EMSA; stable transposome; DMSO, 30 C 1 h; active (FIG. 9); conditions: chain copies: 4 (inferred); 5' overhang
Method: as §1, with “FIG. 8 provides EMSA analysis of MuA transposomes that all contain individual unique sequences. Analysis” for “Analysis”, “R1161),” for “R1161)”, “SM1193) marker” for “SM1193)”
(§2) MuA transposomes were formed in 1× Complex Assembly Buffer with DMSO. The complex assembly reaction contained equimolar ratio of transposon end (9.3 μM) and MuA transposase (1.65 mg/mL). Components were well-mixed and placed for incubated for one hour at 30° C. After incubation, the complex assembly mix was diluted with dilution buffer (88.0% glycerol, 314.5 mM NaCl, and 2.83 mM EDTA) to the final MuA concentration of 0.919 mg/mL. Complexed MuA transposome was stored at −70° C. for at least 16 hours before use.

MuA transposase [3] = molecular target: T1, MuA transposase; test: EMSA; 13 substitutions (3 sensitive); active (FIG. 13A); conditions: chain copies: 4 (inferred); 5' overhang
Method: as §2, with “Complex” for “The complex”, “and” for “and placed for”
(§3) Complex assembly efficiency was evaluated using an electrophoretic mobility shift assay (EMSA) on a 2% agarose gel containing 0.5 μg/mL Ethidium bromide and 87 μg/mL BSA and heparin. Activity was evaluated by fragmenting 100 ng Escherichia virus lambda genomic DNA with 1.5 μL MuA complex in 1× Fragmentation Reaction Buffer (Thermo Scientific™ MuSeek™ Library Preparation Kit, Illumina™ compatible, Cat. No. K1361). Fragmentation was carried out for 5 minutes at 30° C., then stopped by adding 4.4% SDS solution.

MuA transposase [4] = molecular target: T1, MuA transposase; test: EMSA; 8 substitutions (1 sensitive); active (FIG. 13B); conditions: chain copies: 4 (inferred); 5' overhang
Method: as §2, with “Complex” for “The complex”, “and” for “and placed for”
as §3

MuA transposase [5] = molecular target: T1, MuA transposase; test: EMSA; 8 substitutions (1 sensitive); active (FIG. 13C); conditions: chain copies: 4 (inferred); 5' overhang
Method: as §2, with “Complex” for “The complex”, “and” for “and placed for”
as §3

T1 sequence (P07636 whole entry, the tested form may be a part, one chain of several): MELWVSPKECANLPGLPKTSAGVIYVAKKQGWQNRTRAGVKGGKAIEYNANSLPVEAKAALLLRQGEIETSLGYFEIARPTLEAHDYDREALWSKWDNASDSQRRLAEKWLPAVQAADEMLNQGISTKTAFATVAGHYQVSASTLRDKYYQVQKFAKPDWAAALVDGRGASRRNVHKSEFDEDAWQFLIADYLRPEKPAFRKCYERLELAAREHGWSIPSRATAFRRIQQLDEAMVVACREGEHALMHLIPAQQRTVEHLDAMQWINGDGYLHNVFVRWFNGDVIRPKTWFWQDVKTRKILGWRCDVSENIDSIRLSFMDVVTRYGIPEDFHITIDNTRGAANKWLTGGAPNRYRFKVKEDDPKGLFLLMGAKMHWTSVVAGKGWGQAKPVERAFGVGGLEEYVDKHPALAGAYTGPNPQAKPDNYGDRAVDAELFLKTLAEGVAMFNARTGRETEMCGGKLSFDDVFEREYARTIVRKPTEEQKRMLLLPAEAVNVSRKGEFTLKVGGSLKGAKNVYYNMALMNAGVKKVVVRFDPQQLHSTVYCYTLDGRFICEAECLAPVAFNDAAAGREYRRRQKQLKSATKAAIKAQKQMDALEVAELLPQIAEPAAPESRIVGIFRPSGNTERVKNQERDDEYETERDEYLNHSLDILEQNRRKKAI

B1: Mu-N0 transposon end (control) (dsDNA)
DNA 1: GTTTTCGCATTTATCGTGAAACGCTTTCGCGTTTTTCGTGCGCCGCTTCA
DNA 2: CTAGTGAAGCGGCGCACGAAAAACGCGAAAGCGTTTCACGATAAATGCGAAAAC
B1: binds (MuA transposase [1]).

B2: GGGA barcode end (dsDNA)
DNA 1: GTTTTCGCATTTATCGTGAAACGCTTTCGCGTTTTTCGTGCGCCGGGACA
DNA 2: CTAGTGTCCCGGCGCACGAAAAACGCGAAAGCGTTTCACGATAAATGCGAAAAC
B2: binds (MuA transposase [2]).

B3: CTCT barcode end (dsDNA)
DNA 1: GTTTTCGCATTTATCGTGAAACGCTTTCGCGTTTTTCGTGCGCCCTCTCA
DNA 2: CTAGTGAGAGGGCGCACGAAAAACGCGAAAGCGTTTCACGATAAATGCGAAAAC
B3: binds (MuA transposase [2]).

B4: AGAG barcode end (dsDNA)
DNA 1: GTTTTCGCATTTATCGTGAAACGCTTTCGCGTTTTTCGTGCGCCAGAGCA
DNA 2: CTAGTGCTCTGGCGCACGAAAAACGCGAAAGCGTTTCACGATAAATGCGAAAAC
B4: binds (MuA transposase [2]).

B5: ACGC barcode end (dsDNA)
DNA 1: GTTTTCGCATTTATCGTGAAACGCTTTCGCGTTTTTCGTGCGCCACGCCA
DNA 2: CTAGTGGCGTGGCGCACGAAAAACGCGAAAGCGTTTCACGATAAATGCGAAAAC
B5: binds (MuA transposase [2]).

B6: TATA barcode end (dsDNA)
DNA 1: GTTTTCGCATTTATCGTGAAACGCTTTCGCGTTTTTCGTGCGCCTATACA
DNA 2: CTAGTGTATAGGCGCACGAAAAACGCGAAAGCGTTTCACGATAAATGCGAAAAC
B6: binds (MuA transposase [2]).

B7: GCGT barcode end (dsDNA)
DNA 1: GTTTTCGCATTTATCGTGAAACGCTTTCGCGTTTTTCGTGCGCCGCGTCA
DNA 2: CTAGTGACGCGGCGCACGAAAAACGCGAAAGCGTTTCACGATAAATGCGAAAAC
B7: binds (MuA transposase [2]).

B8: Tn-SEQ1 (dsDNA)
DNA 1: GTTTTAGATGTGTATAAGAGACAGTTTCGCGTTTTTCGTGCGCCGCTTCA
DNA 2: CTAGTGAAGCGGCGCACGAAAAACGCGAAACTGTCTCTTATACACATCTAAAAC
B8: binds (MuA transposase [3]).

B9: Tn-SEQ2.1 (dsDNA)
DNA 1: GTTTTCGCTCTTCCGATCTAACGCTTTCGCGTTTTTCGTGCGCCGCTTCA
DNA 2: CTAGTGAAGCGGCGCACGAAAAACGCGAAAGCGTTAGATCGGAAGAGCGAAAAC
B9: binds (MuA transposase [4]).

B10: Tn-SEQ2.2 (dsDNA)
DNA 1: GTTTTCGCATTTATCGTGAAACGCTTTCGCGTTTTTGCTCTTCCGATCTA
DNA 2: CTAGTAGATCGGAAGAGCAAAAACGCGAAAGCGTTTCACGATAAATGCGAAAAC
B10: binds (MuA transposase [5]).

B11: TACG barcode end (dsDNA)
DNA 1: GTTTTCGCATTTATCGTGAAACGCTTTCGCGTTTTTCGTGCGCCTACGCA
DNA 2: CTAGTGCGTAGGCGCACGAAAAACGCGAAAGCGTTTCACGATAAATGCGAAAAC
B11: binds (MuA transposase [2]).

B12: GTAC barcode end (dsDNA)
DNA 1: GTTTTCGCATTTATCGTGAAACGCTTTCGCGTTTTTCGTGCGCCGTACCA
DNA 2: CTAGTGGTACGGCGCACGAAAAACGCGAAAGCGTTTCACGATAAATGCGAAAAC
B12: binds (MuA transposase [2]).

B13: CGCA barcode end (dsDNA)
DNA 1: GTTTTCGCATTTATCGTGAAACGCTTTCGCGTTTTTCGTGCGCCCGCACA
DNA 2: CTAGTGTGCGGGCGCACGAAAAACGCGAAAGCGTTTCACGATAAATGCGAAAAC
B13: binds (MuA transposase [2]).

B14: ACAT barcode end (dsDNA)
DNA 1: GTTTTCGCATTTATCGTGAAACGCTTTCGCGTTTTTCGTGCGCCACATCA
DNA 2: CTAGTGATGTGGCGCACGAAAAACGCGAAAGCGTTTCACGATAAATGCGAAAAC
B14: binds (MuA transposase [2]).

B15: CATG barcode end (dsDNA)
DNA 1: GTTTTCGCATTTATCGTGAAACGCTTTCGCGTTTTTCGTGCGCCCATGCA
DNA 2: CTAGTGCATGGGCGCACGAAAAACGCGAAAGCGTTTCACGATAAATGCGAAAAC
B15: binds (MuA transposase [2]).

B16: TTTC barcode end (dsDNA)
DNA 1: GTTTTCGCATTTATCGTGAAACGCTTTCGCGTTTTTCGTGCGCCTTTCCA
DNA 2: CTAGTGGAAAGGCGCACGAAAAACGCGAAAGCGTTTCACGATAAATGCGAAAAC
B16: binds (MuA transposase [2]).
